Data reported in patent US20250197451A1 (CAPITAL MEDICAL UNIVERSITY SCHOOL OF STOMATOLOGY, published 2025).

B1: peptide 262 (peptide)
peptide: VTKEGCEQFIAEMSV
B2: peptide 241 (peptide)
peptide: NRPGQMDNRSKLRNI
B3: peptide 99 (peptide)
peptide: PKTPTGSPATEVSAK
B4: peptide 84 (peptide)
peptide: DQQPQEEEEKDEEGE
B5: peptide 83 (peptide)
peptide: EEEACDQQPQEEEEK
B6: peptide 150 (peptide)
peptide: SLLKEQKMNRDNKEG
B7: peptide 154 (peptide)
peptide: RRSECEEAPRRRSDE
B8: peptide 96 (peptide)
peptide: ESEESVKSTTLAVDY
B9: peptide 8 (peptide)
peptide: EFESATQRPIDRQRY
B10: peptide 32 (peptide)
peptide: FVRYYETPEAQRDKL
B11: peptide 90 (peptide)
peptide: PTSTPSEDQEALGKK
B12: peptide 64 (peptide)
peptide: VYTPVDSLVFGGNIL
B13: peptide 44 (peptide)
peptide: NAIAEMKYPKVKKYC
B14: peptide 135 (peptide)
peptide: EDTVEEEEGKFNLML
B15: peptide 50 (peptide)
peptide: GGTSVWYHVFRGGKI
B16: peptide 73 (peptide)
peptide: EMCWYVLERYVYCVT
B17: peptide 246 (peptide)
peptide: TDASLRLIIRHMPLL
B18: peptide 77 (peptide)
peptide: TQEYQRESMLIDAPR
B19: peptide 263 (peptide)
peptide: CEQFIAEMSVSVQFG
B20: peptide 33 (peptide)
peptide: ETPEAQRDKLYNVIS
B21: peptide 149 (peptide)
peptide: SNLPGSLLKEQKMNR
B22: peptide 92 (peptide)
peptide: ALGKKPKAPALRFLK
B23: peptide 54 (peptide)
peptide: PTLHNLALYEEWVLS
B24: peptide 89 (peptide)
peptide: DGSTSPTSTPSEDQE
B25: peptide 258 (peptide)
peptide: LSFFKRCGNICHIDL
B26: peptide 65 (peptide)
peptide: DSLVFGGNILHSFNV
B27: peptide 91 (peptide)
peptide: SEDQEALGKKPKAPA
B28: peptide 70 (peptide)
peptide: DRTRVQPKFRYPFYY
B29: peptide 257 (peptide)
peptide: VTDQCLSFFKRCGNI
B30: peptide 266 (peptide)
peptide: VQFGQVEEKLLQKLS
B31: peptide 160 (peptide)
peptide: DDVHLRKKRKYEKPQ

Experiments:
[1] = molecular target: T1, biotin-labelled EZH2 protein (UniProt Q15910 1-746, limits assumed, biotin label (EZ-link NHS-PEO4-Biotinylation kit)); assay: KDM2B peptide array probed with biotin-EZH2 1 ug/ml, SA-HRP/ECL; Remark: noise
T1 construct: Probe in solution (1 ug/ml) on the KDM2B peptide microarray; also called NHS-PEO4-Biotinylation-labelled EZH2 protein; recombinant protein
T1 sequence (Q15910 whole entry): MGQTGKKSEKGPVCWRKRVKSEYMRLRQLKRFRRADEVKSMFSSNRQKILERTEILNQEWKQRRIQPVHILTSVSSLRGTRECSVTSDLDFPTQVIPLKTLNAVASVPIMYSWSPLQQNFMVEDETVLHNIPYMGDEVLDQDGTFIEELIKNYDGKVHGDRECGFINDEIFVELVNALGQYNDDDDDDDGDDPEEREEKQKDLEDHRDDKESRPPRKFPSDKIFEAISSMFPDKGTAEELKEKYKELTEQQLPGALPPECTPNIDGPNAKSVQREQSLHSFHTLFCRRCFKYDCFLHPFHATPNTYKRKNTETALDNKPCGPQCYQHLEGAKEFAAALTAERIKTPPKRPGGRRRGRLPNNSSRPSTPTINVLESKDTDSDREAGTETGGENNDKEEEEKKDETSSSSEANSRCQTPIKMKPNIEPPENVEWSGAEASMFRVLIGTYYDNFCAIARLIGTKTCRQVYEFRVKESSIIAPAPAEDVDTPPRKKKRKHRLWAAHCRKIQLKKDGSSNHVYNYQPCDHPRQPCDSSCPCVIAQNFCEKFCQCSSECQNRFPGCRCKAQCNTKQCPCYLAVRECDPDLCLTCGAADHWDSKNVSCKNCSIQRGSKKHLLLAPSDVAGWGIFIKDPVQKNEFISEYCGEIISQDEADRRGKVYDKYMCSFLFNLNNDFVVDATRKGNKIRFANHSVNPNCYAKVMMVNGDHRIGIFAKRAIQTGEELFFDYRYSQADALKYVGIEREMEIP
Description: (§1) After blocking, the polypeptide microarray was incubated with biotin-labeled target protein for hybridization, visualized with the chemical chromogenic substrate and imaged using a Chempchemi digital imager. The image of colored polypeptide microarray was analyzed for the optical density of the colored points. Particularly, the optical density of each colored point was calculated using the optical density of the respective surrounding background as a reference for background correction. The highest optical density value of the colored point on membrane was set to 100%, and the optical density value of the remaining colored points was converted into percentages relative to the highest value. The points with an optical density percentage of more than 30% on the polypeptide membrane and also with an optical density percentage of less than 30% on the negative membrane were defined as positive colored points.
(§2) For the hybridization experiment, a solution of NHS-PEO4-Biotinylation-labelled EZH2 protein (1 μg/ml) was used for the hybridization of the polypeptide microarray. Streptavidin-HRP was used to amplify the reaction signal according to the experimental procedure and conditions described above, and the time of color development was 5 minutes.

[2] = molecular target: T1, biotin-labelled EZH2 protein; assay: KDM2B peptide array probed with biotin-EZH2 1 ug/ml, SA-HRP/ECL;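 as to Intensity (%): Background-corrected optical density of each spot on the membrane, given as percent of the brightest spot (100%), color developed for 5 minutes; 100% is the highest background-corrected spot optical density on the membrane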
Description: as §1, §2

[3] = molecular target: T1, biotin-labelled EZH2 protein; assay: as above; remark: listed apart in the source
[4] = molecular target: T1, biotin-labelled EZH2 protein; assay: KDM2B peptide array probed with biotin-EZH2 1 ug/ml, SA-HRP/ECL; Remark: spike
Description: as §1, §2

| Binder | Intensity (%) [1] [%] | further results |
| --- | --- | --- |
| B1 | 0 | – |
| B2 | 0 | – |
| B3 | 0 | – |
| B4 | – | binding result [2]: no binding; Intensity (%) [3]: 0% |
| B5 | – | binding result [2]: no binding; Intensity (%) [3]: 0% |
| B6 | – | Intensity (%) [4]: 0% |
| B7 | – | Intensity (%) [4]: 0% |
| B8 | 0 | – |
| B9 | 0 | – |
| B10 | 0 | – |
| B11 | 0.19 | – |
| B12 | – | Intensity (%) [4]: 0% |
| B13 | 0 | – |
| B14 | – | Intensity (%) [4]: 0% |
| B15 | 0 | – |
| B16 | 0.19 | – |

| Binder | Intensity (%) [1] [%] | further results |
| --- | --- | --- |
| B17 | 0 | – |
| B18 | 0 | – |
| B19 | 0.05 | – |
| B20 | 0 | – |
| B21 | – | Intensity (%) [4]: 0% |
| B22 | 0 | – |
| B23 | 0 | – |
| B24 | 0 | – |
| B25 | 0.72 | – |
| B26 | – | Intensity (%) [4]: 0% |
| B27 | 0 | – |
| B28 | 0.02 | – |
| B29 | 0.23 | – |
| B30 | 0 | – |
| B31 | – | Intensity (%) [4]: 0% |
